# In the RNAGym collection of RNA variant scans (doi:10.1073/pnas.2313332121):
# Variants at the floor of the assay were thinned out.
# B1: TPR 5TU (parent)
# chain: GGAUCUUCUCGAUCUAACAAAAAAGACAAAUCUGCCACAAAGCUUGAGAGCAUCUUCGGAUGCAGAGGCGGCAGCCUUCGGUGGCGCGAUAGCGCCAACGUUCUCAACUAUGACACGCAAAACGCGUGCUCCGUUGAAUGGAGUUUAUCAUG
# Variants of: B1
# Test: polymerase ribozyme fitness, log enrichment relative to wild type (log ratio); higher = more active; in vitro selection for triplet polymerase activity
# Procedure, shortened: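 Mutant libraries for each subunit of a heterodimeric triplet polymerase ribozyme were made by PCR and then transcribed. Each library underwent one round of in vitro selection in triplicate: annealing with a biotinylated primer, the partner subunit and triplets, frozen incubation at −7 °C, gel excision of extended constructs, streptavidin-bead capture and RT-PCR. Input and output libraries were Illumina-sequenced, and only genotypes with ≥10 input reads and ≥1 read per output were kept. Fitness is the logarithm, base 2, of genotype enrichment over wild-type enrichment, computed from inverse-variance-weighted replicate averages.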
row,Variant,polymerase ribozyme fitness (log ratio)
1,GGAUCUUCUCGAUCUAACUAAAAAGACAAAUCUGCCACAAAGCUUGAGAGCAUCUUCGGAUGCAGAGGCGGCAGCCUUCGGUCGCGCGCUAGCGCCGACGUUCUCAACUAUGACACGCAAAACGCGUGCUCCGUUGAAUGGAGUUUAUCAUG [A19U G83C A89C A97G],-2.32
2,GGAUCUUCUCGAUCUAACUAAAAAGACAAAUCUGCCACAAAGCUUGAGAGCAUCUUCGAAUGCAGAGGCGGCAGCCUUCGGUGGCGCUGUAGCUCCAACGUUCUCAACUAUGGCACGCAAAACGCGUGCUCCGUUGAAUGGAGUUUAUCAUG [A19U G59A G88U A89G G94U A113G],≤ -4.2
3,GGAUCUUCUCGAUCUAACUAAAAAGAUAAAUCUGCCACAAAGCUUGUGAUCAUCUUCGGAUGCAGAGGCGGCAGCCUUGGGUGGCGCGAUAGGGCCAACGUUCUCAACUAUGACACGCAAAACGCGUGCUCCGUUGAAUGAAGUGUAUCAUG [A19U C27U A47U G50U C79G C93G G141A U145G],≤ -4.2
4,GGAUCUUCUCGAUCUAACUAAAAAGACAAAUCUGCCACAAAGCUUGAGAGCAUCUUCGGAUGCAGAGGCGGCAGCCUUCGGUAGCGCGAAAGCUCCAACGUUCUCAACUAUGACACGCAAAACGCGUGCUCCGUUGAAUGGAGUUUAUCAUG [A19U G83A U90A G94U],≤ -4.2
5,GGAUCUUCUCGAUCUAACUAAAAAGACAAAUCUGCCACAAAGCUUGAGAGUAUCUUCGGAUGCAGAGGCGGCAGCCUUCGGUGGCGCGAUUGCACCAACGUUCUCAACUAUGACACGCAAAACGCGUGCUCCAUUGCAUGGAGUUUAUCAUG [A19U C51U A91U G94A G133A A137C],≤ -4.2
6,GGAUCUUCUCGAUCUAACUAAAAAGACAAAUCUGCCACAAAGCUUGAGAGCAUCUUCGGAUGCAGAGCCGGCAGCCUUCGGUGGUGCGAUAGCGCCAACGUUCUCAACUAUGACACGCAAAACGCGUGCUCCGUUGAAUGGAGUUUAUCAUG [A19U G68C C85U],≤ -4.2
7,GGAUCUUCUCGAUCUAACUAAAAAGACAAAUCUGCCACAAAGCUUGAGAGCAUCUUCGGAUACAGAGGCGGCAGCCUUCGGUGGCGCGAUAGCGCGAACGUUCUCAACUAUGACACGCAAAACGCGUGCUCCGUUGAAUGGAGUUUAUCAUG [A19U G62A C96G],-1.02
8,GGAUCUUCUCGAUCUAACUAAAAAGACAAAUCUGCCAGAAAGGUUGAGAGCAUCUUCGGAUGCAGAGGCGGCAGCCUUCCGUGGCGUGAUAGCGCCAACGUUCUCAACUAUGACACGCAAAACGCGUGCUCCGUUGAAUGGAGUUUAUGAUG [A19U C38G C43G G80C C87U C149G],≤ -4.2
9,GGAUCUUCUCGAUCUAACUAAAAAGACAAAUCUGCCACAAAGCUUGAGAGCAUCUUUGGAUGCAGAGGCGGCAGCCUUCGCUGGCGCGAUAGGGCCAACGUUCUCAACUAUGACACGCAAAACGAGUGCUCCGUUGAAUGGAGUUUAUCAUG [A19U C57U G81C C93G C125A],-3.42
10,GGAUCUUCUCGAUCUAACUAAAAAGACAAAUCUGCCACAAAGCUUGAGAGCAUCUUCGGAUGCAGAGGCGGCAGCCUUCGGUGGUGCGAUAGCGCCAACGUUCUCAGCUAUGACACGCAAAACGCGUGCUCCGUUGAAUGGAGUUUAUCAUG [A19U C85U A107G],≤ -4.2
11,GGAUCUUCUCGAUCUAACUAAAAAGACAAAUCUGCCACAAAGCUUGAGAGCAUCUUCGGAUGCAGAGGCGGCAGCCUUUGGUAGCGCCAUAGCGCCAACGUUCUCAACUAUGACACGCAAAACGCGUGCUCCGUUGAAUGGAGUUUAUCAUG [A19U C79U G83A G88C],≤ -4.2
12,GGAUCUUCUCGAUCUAACUAAAAAGACAAAUCUGCCACAAAGCUUGAGAGCAUCUUCUGAUGCAGAGGCGGCAGCCUUCGGUGGCGUGAUAGCGCCAACGUUCUCAACUAUGACACGCUAAACGCGUGCUCCGUUGAAUGGAGUUUAUCAUG [A19U G58U C87U A119U],-2.02
13,GGAUCUUCUCGAUCUAACUAAAAAUACAAAUCUGCCAGAAAGCUUGAGAGCCUCUUCGGAUGCAGAGGCGGCAGUCUUCGGUGGCGCGAUAGCGCCAACGUUCUCAACUAUGACACGGAAAACGCGUGCUACGUUGAAUGGUGUUUAUCAUG [A19U G25U C38G A52C C75U C118G C131A A142U],≤ -4.2
14,GGAUCUUCUCGAUCUAACUAAAAAGACAAAUCUGCCACAAAGCUUGAGAGCAUCUUCGGAUGCAGAGGCGGCAGCCUUCGGUGGCGCGAUAGUGCCUACGUUCUCAACUAUGACACGCAAAACGCGUGCUCCGUUGAAUGCAGUUUAUCAUG [A19U C93U A97U G141C],-2.49
15,GGAUCUUCUCGAUCUAACUAAAAAGACAAAUCUGCCACAAAGCUUGAGAGCAUCUUCGGAUGCAGAGGCGGCAGCCUUCGGUGGCGCGAUAGUGCCAACGUUCUCAACUAUGACACGCAAAACGCGUGCUCCGUUGAAUGGAGUUUAACAUG [A19U C93U U148A],-3.95
16,GGAUCUUCUCGAUCUAACUAAAAAGACAAAUCUGCCACAAAGCUUGAGAGCAUCUUCGGAUGCAGAGGCGGCAGCCUUCGGUGGCGCGAUAGCACCAACGUUCUCAACUAUGACACGCAAUACGGGUGCUCCGUUGAAUGGAGUUUAUCAUG [A19U G94A A121U C125G],-0.351
17,GGAUCUUCUCGAUCUAACUAAAAAGACAAAUCUGCCACAAAGCUUGAGAGCAUCUUCGGAUGCAGAGGCGGCAGCCUUCGGUGGCGCGAUAGCGUCAAAGUUCUCAACUAUGACACGCAAAACGCGUGCUCCGUUGAAUGGAGUAUAUCAUG [A19U C95U C99A U145A],-2.13
18,GGAUCUUCUCGAUCUAACUAAAAAGACAAAUCUACCAUAAAGCUUGAGAGCAUCUUCGCAUGCAGAGGCGGCAGCCUUCGGUGGCGCGAUAGCGACAACGUUCUCAACUAUGACAAGCAAAACGCGUGCUCCGUUGAAUGGAGUUUAUCAUG [A19U G34A C38U G59C C95A C116A],-4.19
19,GGAUCUUCUCGAUCUAACUAAAAAGACAAAUCUGCCACAAAGCUUGAGAGCAUCUUCGGAUGCAGAGGCGGCAGCCUUCUGUGGCGCGAUAGCGCCAACGUUCUCAACUAUGACACGCAAAACGCGUGCUCCGUUGAAUGGAGUUUAUCAUG [A19U G80U],-0.442
